Earlier results on one substance are cited in publication PMC4070439.

The term Kd denotes the constant that tells how readily two partners part at equilibrium.

Data set [1] has as its target IL-12Rβ1 (high affinity site) (Mus musculus) (UniProt Q60837).
Data set [2] concerns the target IL-12Rβ1 (low affinity site) (Mus musculus) (UniProt Q60837).

In the case of “IL-12 p40 homodimer (from UniProt P43432)”, the values for the equilibrium dissociation constant (Kd) in data set [1] and in data set [2] were 0.005 nM and 15 nM, respectively.
